Results on one molecule are retold here after PMC8096068, “The canonical α-SNAP is essential for gametophytic development in Arabidopsis” (PLoS Genetics, 2021).

The assay concerns the target T1, His-NSF (Arabidopsis, UniProt Q9M0Y8 1-742).
T1 construct: Arabidopsis thaliana N-ethylmaleimide-sensitive factor (NSF), At4g04910; also called NSF-His; his-tagged NSF
T1 sequence (looked up): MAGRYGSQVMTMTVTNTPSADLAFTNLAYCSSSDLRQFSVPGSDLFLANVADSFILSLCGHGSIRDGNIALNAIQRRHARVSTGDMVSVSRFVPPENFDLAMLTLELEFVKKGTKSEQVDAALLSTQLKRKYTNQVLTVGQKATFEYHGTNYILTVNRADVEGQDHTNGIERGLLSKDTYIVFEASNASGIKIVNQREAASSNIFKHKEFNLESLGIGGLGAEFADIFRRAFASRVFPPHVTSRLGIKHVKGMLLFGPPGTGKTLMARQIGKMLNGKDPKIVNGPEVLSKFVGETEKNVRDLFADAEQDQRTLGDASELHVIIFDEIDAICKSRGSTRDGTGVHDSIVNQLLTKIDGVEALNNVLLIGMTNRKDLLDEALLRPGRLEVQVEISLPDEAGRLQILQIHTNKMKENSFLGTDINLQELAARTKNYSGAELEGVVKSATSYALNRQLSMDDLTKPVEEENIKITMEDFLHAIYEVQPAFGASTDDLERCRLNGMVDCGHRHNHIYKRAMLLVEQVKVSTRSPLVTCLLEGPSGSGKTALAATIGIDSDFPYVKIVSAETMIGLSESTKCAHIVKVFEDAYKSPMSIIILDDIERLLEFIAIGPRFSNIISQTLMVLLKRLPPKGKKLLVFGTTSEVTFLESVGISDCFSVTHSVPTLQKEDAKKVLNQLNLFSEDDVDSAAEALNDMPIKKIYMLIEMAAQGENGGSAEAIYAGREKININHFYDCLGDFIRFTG
Briefly: pull-down; in vitro pull-down; NSF-His used to pull down ASNAP.1-GST or ASNAP.2-GST; recombinant proteins from E. coli, affinity-purified. The settings on record: both partners purified.

B1: GST-ASNAP.1 (natural protein, Arabidopsis, UniProt Q9SPE6 1-289, looked up)
chain: MGDHLVRAEEFEKKAEKKLNGWGIFGSKYEDAADLLEKAANSYKLAKSWDQAGKAYLKLADCHLKSDSKHDAANAYAEAAKCYKKVDTNEAASCLERAVNIFCEIGRLNMAARYYKEIAEYYESDQKFEQAIAYFEKAAEFFQNEEVTTSANQCNLKVAQYAAQLEQYEKAIKIYEDIARHSLNNNLLKYGVKGHLLTAGMCHLCKADVVSITNALEKYQDLDPTFTGTRECKFLADLASAIDEEDIAKFTDVVKEFDSMTPLDSWKTTMLLRVKEKLKAKELEEDDLT
notes: Arabidopsis thaliana alpha-soluble NSF attachment protein ASNAP, splicing variant ASNAP.1 (At3g56190.1); The only vector named for the pull-down constructs is pET-32a, which is not a GST vector; also called ASNAP.1-GST; α-SNAP.1
As to B1, the binding result is on record as “binds”.
